Results on four molecules are retold here after publication PMC10278182 (2023).

The target in test [1] is T1, WD40 repeat protein 5 truncation mutant lacking residues 1-22 (WDR5ΔN) (UniProt P61964 23-334). Briefly: short-lived events (koff-1), event durations.
For test [2], the target named is T1, WD40 repeat protein 5 truncation mutant …. As to the kind of experiment: medium-lived events (koff-2), event durations.
Test [3] shares this target. Briefly: long-lived events (koff-3), 1 [WDR5].
The target is the same in test [4]. As to the kind of experiment: long-lived events (koff-3), 2 [WDR5].
For test [5] the target is unchanged. As to the kind of experiment: long-lived events (koff-3), 4 [WDR5].
The target is the same in test [6]. As to the kind of experiment: short-lived events (koff-1), 1 [WDR5].
For test [7] the target is unchanged. As to the kind of experiment: short-lived events (koff-1), 4 [WDR5].
Test [8] shares this target. Briefly: long-lived events (koff-3), 0.5 [WDR5].
Test [9] shares this target. Briefly: medium-lived events (koff-2), 1 [WDR5].
The target is the same in test [10]. Briefly: medium-lived events (koff-2), 2 [WDR5].
The target is the same in test [11]. As to the kind of experiment: medium-lived events (koff-2), 4 [WDR5].
Test [12] shares this target. Briefly: short-lived events (koff-1), 0.5 [WDR5].
Test [13] shares this target. Briefly: long-lived events (koff-3), event durations.
Test [14] has the same target. As to the kind of experiment: long-lived events (koff-3), 1 [WDR5]. This is another data set of the same source.
Test [15] shares this target. As to the kind of experiment: long-lived events (koff-3), 2 [WDR5]. The source holds these as a separate data set.
Test [16] has the same target. Briefly: long-lived events (koff-3), 4 [WDR5]. This is another data set of the same source.
The target is the same in test [17]. As to the kind of experiment: short-lived events (koff-1), 1 [WDR5]. This is another data set of the same source.
For test [18] the target is unchanged. Briefly: short-lived events (koff-1), 2 [WDR5].
The target is the same in test [19]. As to the kind of experiment: short-lived events (koff-1), 4 [WDR5]. This is another data set of the same source.
Test [20] shares this target. Briefly: long-lived events (koff-3), 0.5 [WDR5]. This is another data set of the same source.
Test [21] shares this target. Briefly: medium-lived events (koff-2), 1 [WDR5]. The source holds these as a separate data set.
Test [22] shares this target. As to the kind of experiment: medium-lived events (koff-2), 2 [WDR5]. This is another data set of the same source.
Test [23] has the same target. As to the kind of experiment: medium-lived events (koff-2), 4 [WDR5]. This is another data set of the same source.
The target is the same in test [24]. Briefly: short-lived events (koff-1), 0.5 [WDR5]. This is another data set of the same source.
The target is the same in test [25]. Briefly: medium-lived events (koff-2), 0.5 [WDR5].

As to MGDRGPEFELGTMLNPHGAARAEVYLRPAPAPA (other) [O(PA)3 nanopore sensor (adaptor O - MLL4Win - (PA)3 tether - tFhuA)], the values for the koff in test [1] and in test [2] were 210 s⁻¹ and 34 s⁻¹, respectively.

Take MGDRGPEFELGTMLNPHGAARAEVYLRGGSGGS (other) [O(GGS)2 nanopore sensor (adaptor O - MLL4Win - (GGS)2 tether - tFhuA)]: the koff (usually the rate constant with which the complex falls apart) in test [1] turned out to be 86 s⁻¹; in [2], 9.2 s⁻¹.

With MGDRGPEFELGTMLNPHGAARAEVYLRPAPAPAPAPAPA (other) [O(PA)6 nanopore sensor (adaptor O - MLL4Win - (PA)6 tether - tFhuA)], the koff is 0.78 s⁻¹ in test [3]; 0.77 s⁻¹ in [4]; 0.73 s⁻¹ in test [5]; 159 s⁻¹ in [6]; 167 s⁻¹ in [7]; 0.77 s⁻¹ in [8]. For the same molecule, the koff in test [9] is 23 s⁻¹; in test [10], 20 s⁻¹; in test [11], 21 s⁻¹; in test [12], 178 s⁻¹; in test [13], 0.77 s⁻¹; in [2] it was 20 s⁻¹.

MGDRGPEFELGTMLNPHGAARAEVYLRGGSGGSGGSGGS (other) [O(GGS)4 nanopore sensor (adaptor O - MLL4Win - (GGS)4 tether - tFhuA)]: the koff in [14] came out at 0.77 s⁻¹; in [15], 0.77 s⁻¹; in test [16], 0.79 s⁻¹; in test [17] it was 91 s⁻¹; in test [18], 87 s⁻¹; in test [19] it was 81 s⁻¹. For the same molecule, the koff in [20] worked out at 0.84 s⁻¹; in [21], 9.4 s⁻¹; in test [22], 9.9 s⁻¹; in test [23], 9.5 s⁻¹; in test [24], 84 s⁻¹; in test [25], 8.9 s⁻¹. The koff in test [13] came out at 0.77 s⁻¹; in test [1], 87 s⁻¹; in test [2], 9.9 s⁻¹.
